From US5223421A, “Identification of methionine Nα-acetyltransferase” (The General Hospital Corporation, priority 1990, dated 1993)

Columns and labels:
[1] = target: T1, AAA1 N^α -acetyltransferase (N^α -AT) (Saccharomyces cerevisiae, UniProt P07347+P12945); assay: Relative activity of N^α -AT for N^α -acetylation of synthetic peptides; assay type: biochemical
T1 sequence (P12945 2-854 limits assumed): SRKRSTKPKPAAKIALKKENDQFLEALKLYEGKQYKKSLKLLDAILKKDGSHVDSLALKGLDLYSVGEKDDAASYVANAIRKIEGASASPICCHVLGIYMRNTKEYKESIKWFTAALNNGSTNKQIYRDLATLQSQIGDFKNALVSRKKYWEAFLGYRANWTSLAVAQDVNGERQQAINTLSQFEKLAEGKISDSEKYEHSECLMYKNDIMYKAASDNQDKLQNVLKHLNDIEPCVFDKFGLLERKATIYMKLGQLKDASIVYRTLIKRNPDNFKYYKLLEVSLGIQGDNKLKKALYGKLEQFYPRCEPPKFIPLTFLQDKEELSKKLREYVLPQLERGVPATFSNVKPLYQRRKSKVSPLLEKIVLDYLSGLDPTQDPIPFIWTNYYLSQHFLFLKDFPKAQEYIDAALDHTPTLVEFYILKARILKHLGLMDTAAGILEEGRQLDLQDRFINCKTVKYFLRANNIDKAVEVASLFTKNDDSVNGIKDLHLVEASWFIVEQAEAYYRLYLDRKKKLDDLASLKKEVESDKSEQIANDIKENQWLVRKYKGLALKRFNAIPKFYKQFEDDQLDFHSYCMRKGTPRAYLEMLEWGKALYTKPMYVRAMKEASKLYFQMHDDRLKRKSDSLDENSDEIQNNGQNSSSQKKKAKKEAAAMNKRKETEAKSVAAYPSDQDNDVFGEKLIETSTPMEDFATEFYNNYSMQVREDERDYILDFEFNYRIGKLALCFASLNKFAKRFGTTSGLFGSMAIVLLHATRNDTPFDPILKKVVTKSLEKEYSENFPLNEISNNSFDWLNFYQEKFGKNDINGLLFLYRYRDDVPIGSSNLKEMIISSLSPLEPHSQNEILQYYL
T1 sequence (P07347 1-238): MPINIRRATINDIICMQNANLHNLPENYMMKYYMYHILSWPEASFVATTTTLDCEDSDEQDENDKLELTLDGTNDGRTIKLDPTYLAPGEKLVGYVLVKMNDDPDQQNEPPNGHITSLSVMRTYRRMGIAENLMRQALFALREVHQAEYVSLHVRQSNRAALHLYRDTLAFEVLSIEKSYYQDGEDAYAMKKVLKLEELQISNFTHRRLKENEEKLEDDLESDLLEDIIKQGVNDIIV
Experimental: (§1) N^α -acetylt[…] was determined as previously described [Lee et al., J. Biol. Chem. 263:14948-14955 (1988)]. Aliquots of the lysate or chromatographic fractions were added to 1.5 ml Eppendorf tubes containing a reaction mixture of 50 mM HEPES, pH 7.4, 150 mM KCl, 1 mM DTT, 25 μM [^3 H] acetyl coenzyme A (0.5 μCi) and 50 μM synthetic peptide with an adjusted final volume of 100 μl. The assay mixture was incubated at 30° C. for 30 min. The reaction was stopped by adding 17 μl of 0.5M acetic acid and chilled in an ice bath. The reaction samples were filtered through SP membrane discs (Cuno) (previously pre-swollen in 0.5M acetic acid), and then washed three times with 1 ml of 0.5M acetic acid on a Millipore 1225 sampling manifold. The partially dried membranes were placed in scintillation cocktail and counted with a Beckman LS 3801 scintillation counter. One unit of activity was defined as the amount of enzyme able to transfer 1 pmol of [^3 H] acetyl group from [^3 H] acetyl coenzyme A to synthetic peptide per min under standard enzyme assay conditions defined above.
(§2) In order to compare the relative specificity and activity of the methionine N^α -acetylt[…] (M-N^α -AT) of the present invention with the specificity and activity of the AAA1 N^α -acetyltransferase (N^α -AT) of Lee, F.-J. S., et al., J. Bacteriol. 171, (1989), U.S. Patent Application of John A. Smith, and Fang-Jen S. Lee, filed Oct. 25, 1989, entitled "ISOLATION OF STRAINS OF SAC[…] ALTERED N^α -ACETYLT[…]" (which references have been incorporated herein by reference) synthetic peptides were prepared. These peptides were assessed for their ability to serve as substrates for the two enzymes. In Table 6, the effect of the amino terminal amino acid on activity is investigated; in Table 7, the effect of the penultimate amino terminal amino acid on activity is investigated.

[2] = system: methionine N^α -acetyltransferase (M-N^α -AT); assay: Relative activity of M-N^α -AT for N^α -acetylation of synthetic peptides; assay type: biochemical, Saccharomyces cerevisiae; parameters: tested at 50 µM; conditions: Table 7, influence of the penultimate amino terminal residue
Experimental: as §1, §2

[3] = Table 6, influence of the amino terminal residue
[4] = Table 7, influence of the penultimate amino terminal residue

Row | Substance | Activity (%) (mean activity ± S.D.) N^a -AT [1, 3] | Activity (%) (mean activity ± S.D.) N^a -AT [1, 4] | Activity (%) (mean activity ± S.D.) M-N^a -AT [2]
1 | SIPETQKGVIFYESHGKLEYKDIP (SIPETQKGVIFYESHGKLEYKDIP) [Alcohol dehydrogenase (1-24) (Yeast)] | 102 ± 5 | 102 ± 5 | 0
2 | SYSMEHFRWGKPVGKKRRPVKVYP | 100 ± 5 | 100 ± 5 | 0
